Data from patent publication US20160287682.

Test system: Notch1, overexpressed in 293T cells

For “Adamts1, V5 tagged, overexpressed in 293T cells”, the “S2 cleavage of Notch1” value was “Adamts1 blocks S2 cleavage of Notch1”.
